Measured values as given in patent publication US20230087785A1, “Leucine-Rich Repeat Kinase 2 Allosteric Modulators” (VIB VZW, priority 2020, published 2023).

Assays:
[1] = target: T1, Full-length human Leucine-rich repeat kinase 2 (LRRK2), N-terminal Strep/Flag (SF) tagged (human, UniProt Q5S007 1-2527); assay: cell-based or functional assay
[2] = target: T2, LRRK2 RocCOR domain construct (human, UniProt Q5S007 1334-1840); assay: ELISA, antigen coated on the plate, purified Nb detected via its EPEA tag
T2 construct: A second construct (residues 1293-1840, N-terminal His6-MBP) was used in certain screening experiments; not shown: N-terminal Twin-Strep-tag; C-terminal His10-tag
T2 sequence: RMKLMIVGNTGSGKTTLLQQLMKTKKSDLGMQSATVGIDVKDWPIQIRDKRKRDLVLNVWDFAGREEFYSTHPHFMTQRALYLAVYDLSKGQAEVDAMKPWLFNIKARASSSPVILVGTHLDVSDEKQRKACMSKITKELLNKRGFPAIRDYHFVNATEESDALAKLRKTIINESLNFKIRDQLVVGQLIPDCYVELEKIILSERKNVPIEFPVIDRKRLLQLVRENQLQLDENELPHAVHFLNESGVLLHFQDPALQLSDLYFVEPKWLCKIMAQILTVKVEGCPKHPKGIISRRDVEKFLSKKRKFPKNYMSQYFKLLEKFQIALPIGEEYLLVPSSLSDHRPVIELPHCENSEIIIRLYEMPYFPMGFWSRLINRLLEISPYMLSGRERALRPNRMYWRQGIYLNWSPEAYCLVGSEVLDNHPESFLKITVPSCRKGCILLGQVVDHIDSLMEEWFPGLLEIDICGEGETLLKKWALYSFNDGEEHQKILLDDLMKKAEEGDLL
Outline: (§1)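 The RocCOR, Roc, COR-B and kinase-WD40 constructs were coated side by side on one ELISA plate. Binding of each purified nanobody to every coated construct was then detected.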

[3] = target: T3, LRRK2 Roc domain construct (human, UniProt Q5S007 1329-1520); assay: as above
T3 construct: not shown: N-terminal His6-tag of pET-28a
T3 sequence: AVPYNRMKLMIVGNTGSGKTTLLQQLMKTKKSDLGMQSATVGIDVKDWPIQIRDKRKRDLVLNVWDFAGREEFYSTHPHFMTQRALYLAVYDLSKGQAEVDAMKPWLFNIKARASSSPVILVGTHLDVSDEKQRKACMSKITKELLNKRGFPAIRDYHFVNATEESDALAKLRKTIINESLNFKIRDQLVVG
Outline: as §1

[4] = target: T4, LRRK2 COR-B construct (C-terminal part of the COR domain), His6-MBP tagged (human, UniProt Q5S007 1672-1840); assay: as above
T4 construct: also called (MBP-)COR-B; not shown: N-terminal His6-MBP-tag of pDEST-566
Outline: as §1

[5] = target: T1, Full-length human Leucine-rich repeat …; assay: kinase kinetics (PhosphoSens, varied ATP), global fit to mixed inhibition; ATP-bound LRRK2; enzyme kinetics, mixed inhibition fit; ATP-bound LRRK2
Description: (§2) Full Michaelis-Menten curves (relative velocity versus [ATP]) in presence of different Nb concentrations were collected at 30° C. in a buffer consisting of 50 mM HEPES pH 7.5, 0.1% Brij-35, 50 mM NaCl, 10 mM MgCl₂ and […], using a fixed concentration of AQT0615 (10 μM) and varying concentrations of ATP. The LRRK2 concentration was chosen such that initial rates (linear fluorescence versus time curves) were obtained, and LRRK2, ATP and the Nbs were preincubated at 4° C. for 30 min prior to starting the reaction by adding the peptide substrate. The Michaelis-Menten curves for the different Nb concentrations were globally fit on a mixed-inhibition model using GraphPad Prism, according to the equation: […]

[6] = target: T1, Full-length human Leucine-rich repeat …; assay: BLI; Nb on LRRK2 trapped on streptavidin sensor via biotinylated Nb40; steady-state fit; BLI; LRRK2 trapped on the sensor via biotinylated Nb40
Description: To determine the binding affinity (dissociation constant KD) of the ten Nbs for LRRK2, two methods were used in parallel: microscale thermophoresis (MST) and bio-layer interferometry (BLI). For the MST experiment, we site-specifically labeled the ten Nbs with a m-TAM RA fluorophore at its C-terminus, using sortase-mediated coupling, and then titrated increasing amounts of full-length LRRK2 to these Nbs (FIGS. 13A-13E).
Biolayer interferometry (BLI) measurements were performed using an Octet Red96 (Forte Bio, Inc.) system in a buffer containing 50 mM HEPES pH 8.0, 150 mM NaCl, 10 mM MgCl₂, 5% glycerol, 0.1% BSA, 0.05% Tween, at 25° C. and with shaking speed 1000 rpm. […] The biotinylated Nbs were first loaded on pre-equilibrated SA biosensors at a concentration of 5 μg/mL. This Nb-loaded sensor was then used to trap FL-LRRK2 from a 50 nM LRRK2 solution. […] All experiments were performed in triplicate.

[7] = target: T1, Full-length human Leucine-rich repeat …; assay: kinase kinetics (PhosphoSens, varied ATP), global fit to mixed inhibition; affinity for apo-LRRK2; enzyme kinetics, mixed inhibition fit; apo (non-ATP-bound) LRRK2
Description: as §2

B1: Nb23 (CA13612) (VHH)
VHH: QVQLVESGGGLVQAGGSLRLSCAASGRTFSRYTMGWFRQAPGKDREFVARITTSGAVTTYADSAKGRFTISRDNAKNTVYLQMNTLKPEDTAVYYCAAGQGQLSSQSRFVDYWGQGTQVTVSS
[1]
  IC50 of in vitro LRRK2 kinase activity (AQT0615 peptide, PhosphoSens, 1 mM ATP): ~65 µM
[2]
  binding result: no binding (tested: not given)
[3]
  binding result: no binding (tested: not given)
[4]
  binding result: no binding (tested: not given)
[5]
  Ki: 66 µM
[6]
  Kd: 0.065 µM
[7]
  Ki: 9 µM
